In patent US10704030B2, “P450-BM3 variants with improved activity” (Codexis, Inc., priority 2015, dated 2020):

Assays:
Type in all cases: biochemical
[1] = Validation of generalist properties: oxidation of loratadine by lyophilized P450-BM3 variant, UPLC-MS; conditions: [Loratadine] = 1 mM; for TON: TON = [substrate]*% conversion/[P450]; for FIOPC (F02): fold improvement over parent MCYP-P1.2-F02
Outline: (§1)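 Lyophilized lysate of E. coli-expressed P450-BM3 variant (stock standardized to 12 μM heme) was incubated 24 h at 30 °C with 1 or 2 mM substrate, 1.0 mM NADP+, 25 mM glucose, 0.5 mg/mL glucose dehydrogenase and 5% DMSO in 100 mM potassium phosphate. Acetonitrile-quenched samples were analyzed by UPLC-MS (positive ESI).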

[2] = Validation of generalist properties: oxidation of imatinib by lyophilized P450-BM3 variant, UPLC-MS; conditions: [Imatinib] = 1 mM; for TON: TON = [substrate]*% conversion/[P450]; for FIOPC (F02): fold improvement over parent MCYP-P1.2-F02
Outline: as §1

[3] = Validation of generalist properties: oxidation of gefitinib by lyophilized P450-BM3 variant, UPLC-MS; conditions: [Gefitinib] = 1 mM; for TON: TON = [substrate]*% conversion/[P450]; for FIOPC (F02): fold improvement over parent MCYP-P1.2-F02
Outline: as §1

[4] = Validation of generalist properties: oxidation of diclofenac by lyophilized P450-BM3 variant, UPLC-MS; conditions: [Diclofenac] = 1 mM; for TON: TON = [substrate]*% conversion/[P450]; for FIOPC (F02): fold improvement over parent MCYP-P1.2-F02
Outline: as §1

Molecule	% Conv. [1]	TON [1]	% Conv. [2]	TON [2]	% Conv. [3]	TON [3]	% Conv. [4]	TON [4]	FIOPC (F02) [1]	FIOPC (F02) [2]	FIOPC (F02) [3]	FIOPC (F02) [4]
SEQ ID NO: 14: P450-BM3 parental backbone from the commercially available MCYP panel (MCYP-0343; Codexis) (protein, P450_BM3) MTIKEMPQPKTFGELKNLPLLNTDKPVQALMKIADELGEIFKFEAPGLVTRYLSSQRLIKEACDESRFDKNLSQALKFARDFAGDGLFTSWTHEKNWKKAHNILLPSFSQQAMKGYHAMMVDIAVQLVQKWERLNADEHIEVPEDMTRLTLDTIGLCGFNYRFNSFYRDQPHPFITSMVRALDEAMNKQQRANPDDPAYDENKRQFQEDIKVMNDLVDKIIADRKASGEQSDDLLTHMLNGKDPETGEPLDDENIRYQIITFLIAGHETTSGLLSFALYFLVKNPHVLQKAAEEAARVLVDPVPSYKQVKQLKYVGMVLNEALRLWPTAPAFSLYAKEDTVLGGEYPLEKGDELMVLIPQLHRDKTIWGDDVEEFRPERFENPSAIPQHAFKPFGNGQRACIGQQFALHEATLVLGMMLKHFDFEDHTNYELDIKETLTLKPEGFVVKAKSKKIPLGGIPSPSTEQSAKKVRKKAENAHNTPLLVLYGSNMGTAEGTARDLADIAMSKGFAPQVATLDSHAGNLPREGAVLIVTASYNGHPPDNAKQFVDWLDQASADEVKGVRYSVFGCGDKNWATTYQKVPAFIDETLAAKGAENIADRGEADASDDFEGTYEEWREHMWSDVAAYFNLDIENSEDNKSTLSLQFVDSAADMPLAKMHGAFSTNVVASKELQQPGSARSTRHLEIELPKEASYQEGDHLGVIPRNYEGIVNRVTARFGLDASQQIRLEAEEEKLAHLPLAKTVSVEELLQYVELQDPVTRTQLRAMAAKTVCPPHKVELEALLEKQAYKEQVLAKRLTMLELLEKYPACEMKFSEFIALLPSIRPRYYSISSSPRVDEKQASITVSVVSGEAWSGYGEYKGIASNYLAELQEGDTITCFISTPQSEFTLPKDPETPLIMVGPGTGVAPFRGFVQARKQLKEQGQSLGEAHLYFGCRSPHEDYLYQEELENAQSEGIITLHTAFSRMPNQPKTYVQHVMEQDGKKLIELLDQGAHFYICGDGSQMAPAVEATLMKSYADVHQVSEADARLWLQQLEEKGRYAKDVWAG	+ (0-5.00)	‡‡ (1001-5000)	+ (0-5.00)	‡‡ (1001-5000)	+ (0-5.00)	‡ (0-1000)	+ (0-5.00)	‡ (0-1000)	–	–	–	–
Variant 1: P450-BM3 variant of SEQ ID NO: 14: Y52F; K95P; G115R; T176V; L216Y; D232H; E349T; M491A; T577A; E619D (protein, P450_BM3, K95P; G115R; T176V; L216Y; D232H; E349T; M491A; T577A; E619D) MTIKEMPQPKTFGELKNLPLLNTDKPVQALMKIADELGEIFKFEAPGLVTRFLSSQRLIKEACDESRFDKNLSQALKFARDFAGDGLFTSWTHEPNWKKAHNILLPSFSQQAMKRYHAMMVDIAVQLVQKWERLNADEHIEVPEDMTRLTLDTIGLCGFNYRFNSFYRDQPHPFIVSMVRALDEAMNKQQRANPDDPAYDENKRQFQEDIKVMNDYVDKIIADRKASGEQSHDLLTHMLNGKDPETGEPLDDENIRYQIITFLIAGHETTSGLLSFALYFLVKNPHVLQKAAEEAARVLVDPVPSYKQVKQLKYVGMVLNEALRLWPTAPAFSLYAKEDTVLGGEYPLTKGDELMVLIPQLHRDKTIWGDDVEEFRPERFENPSAIPQHAFKPFGNGQRACIGQQFALHEATLVLGMMLKHFDFEDHTNYELDIKETLTLKPEGFVVKAKSKKIPLGGIPSPSTEQSAKKVRKKAENAHNTPLLVLYGSNAGTAEGTARDLADIAMSKGFAPQVATLDSHAGNLPREGAVLIVTASYNGHPPDNAKQFVDWLDQASADEVKGVRYSVFGCGDKNWAATYQKVPAFIDETLAAKGAENIADRGEADASDDFEGTYEEWRDHMWSDVAAYFNLDIENSEDNKSTLSLQFVDSAADMPLAKMHGAFSTNVVASKELQQPGSARSTRHLEIELPKEASYQEGDHLGVIPRNYEGIVNRVTARFGLDASQQIRLEAEEEKLAHLPLAKTVSVEELLQYVELQDPVTRTQLRAMAAKTVCPPHKVELEALLEKQAYKEQVLAKRLTMLELLEKYPACEMKFSEFIALLPSIRPRYYSISSSPRVDEKQASITVSVVSGEAWSGYGEYKGIASNYLAELQEGDTITCFISTPQSEFTLPKDPETPLIMVGPGTGVAPFRGFVQARKQLKEQGQSLGEAHLYFGCRSPHEDYLYQEELENAQSEGIITLHTAFSRMPNQPKTYVQHVMEQDGKKLIELLDQGAHFYICGDGSQMAPAVEATLMKSYADVHQVSEADARLWLQQLEEKGRYAKDVWAG	+ (0-5.00)	‡‡ (1001-5000)	++++ (15.01-20.00)	‡‡‡‡ (10000-50000)	+ (0-5.00)	‡ (0-1000)	+ (0-5.00)	‡‡ (1001-5000)	* (0.0-3.0)	**** (10.01-15.00)	* (0.0-3.0)	**** (10.01-15.00)
Variant 2: P450-BM3 variant of SEQ ID NO: 14: Y52F; G115R; T176V; L216Y; D232H; P347T; E349T; T577A; D722S (protein, P450_BM3, G115R; T176V; L216Y; D232H; P347T; E349T; T577A; D722S) MTIKEMPQPKTFGELKNLPLLNTDKPVQALMKIADELGEIFKFEAPGLVTRFLSSQRLIKEACDESRFDKNLSQALKFARDFAGDGLFTSWTHEKNWKKAHNILLPSFSQQAMKRYHAMMVDIAVQLVQKWERLNADEHIEVPEDMTRLTLDTIGLCGFNYRFNSFYRDQPHPFIVSMVRALDEAMNKQQRANPDDPAYDENKRQFQEDIKVMNDYVDKIIADRKASGEQSHDLLTHMLNGKDPETGEPLDDENIRYQIITFLIAGHETTSGLLSFALYFLVKNPHVLQKAAEEAARVLVDPVPSYKQVKQLKYVGMVLNEALRLWPTAPAFSLYAKEDTVLGGEYTLTKGDELMVLIPQLHRDKTIWGDDVEEFRPERFENPSAIPQHAFKPFGNGQRACIGQQFALHEATLVLGMMLKHFDFEDHTNYELDIKETLTLKPEGFVVKAKSKKIPLGGIPSPSTEQSAKKVRKKAENAHNTPLLVLYGSNMGTAEGTARDLADIAMSKGFAPQVATLDSHAGNLPREGAVLIVTASYNGHPPDNAKQFVDWLDQASADEVKGVRYSVFGCGDKNWAATYQKVPAFIDETLAAKGAENIADRGEADASDDFEGTYEEWREHMWSDVAAYFNLDIENSEDNKSTLSLQFVDSAADMPLAKMHGAFSTNVVASKELQQPGSARSTRHLEIELPKEASYQEGDHLGVIPRNYEGIVNRVTARFGLSASQQIRLEAEEEKLAHLPLAKTVSVEELLQYVELQDPVTRTQLRAMAAKTVCPPHKVELEALLEKQAYKEQVLAKRLTMLELLEKYPACEMKFSEFIALLPSIRPRYYSISSSPRVDEKQASITVSVVSGEAWSGYGEYKGIASNYLAELQEGDTITCFISTPQSEFTLPKDPETPLIMVGPGTGVAPFRGFVQARKQLKEQGQSLGEAHLYFGCRSPHEDYLYQEELENAQSEGIITLHTAFSRMPNQPKTYVQHVMEQDGKKLIELLDQGAHFYICGDGSQMAPAVEATLMKSYADVHQVSEADARLWLQQLEEKGRYAKDVWAG	+ (0-5.00)	‡‡ (1001-5000)	++++ (15.01-20.00)	‡‡‡‡ (10000-50000)	+ (0-5.00)	‡ (0-1000)	+ (0-5.00)	‡‡ (1001-5000)	* (0.0-3.0)	**** (10.01-15.00)	* (0.0-3.0)	**** (10.01-15.00)
SEQ ID NO:16: P450-BM3 parental backbone from the commercially available MCYP panel (MCYP-0343; Codexis) (protein, P450_BM3) MTIKEMPQPKTFGELKNLPLLNTDKPVQALMKIADELGEIFKFEAPGCVTRYLSSQRLIKEACDESRFDKNLSQALKFARDFLGDGLVTSWTHEINWKKAHNILLPSFSQQAMKGYHAMMVDIAVQLVQKWERLNADEHIEVSEDMTRLTLDTIGLCGFNYRFNSFYRDQPHPFIISMVRALDEVMNKLQRANPDDPAYDENKRQCQEDIKVMNDLVDKIIADRKARGEQSDDLLTQMLNGKDPETGEPLDDGNISYQIITFLIAGHETTSGLLSFALYFLVKNPHVLQKVAEEAARVLVDPVPSYKQVKQLKYVGMVLNEALRLWPTAPAFSLYAKEDTVLGGEYPLEKGDEVMVLIPQLHRDKTIWGDDVEEFRPERFENPSAIPQHAFKPFGNGQRACIGQQFALHEATLVLGMMLKHFDFEDHTNYELDIKETLTLKPEGFVVKAKSKKIPLGGIPSPSTEQSAKKVRKKAENAHNTPLLVLYGSNMGTAEGTARDLADIAMSKGFAPQVATLDSHAGNLPREGAVLIVTASYNGHPPDNAKQFVDWLDQASADEVKGVRYSVFGCGDKNWATTYQKVPAFIDETLAAKGAENIADRGEADASDDFEGTYEEWREHMWSDVAAYFNLDIENSEDNKSTLSLQFVDSAADMPLAKMHGAFSTNVVASKELQQPGSARSTRHLEIELPKEASYQEGDHLGVIPRNYEGIVNRVTARFGLDASQQIRLEAEEEKLAHLPLAKTVSVEELLQYVELQDPVTRTQLRAMAAKTVCPPHKVELEALLEKQAYKEQVLAKRLTMLELLEKYPACEMKFSEFIALLPSIRPRYYSISSSPRVDEKQASITVSVVSGEAWSGYGEYKGIASNYLAELQEGDTITCFISTPQSEFTLPKDPETPLIMVGPGTGVAPFRGFVQARKQLKEQGQSLGEAHLYFGCRSPHEDYLYQEELENAQSEGIITLHTAFSRMPNQPKTYVQHVMEQDGKKLIELLDQGAHFYICGDGSQMAPAVEATLMKSYADVHQVSEADARLWLQQLEEKGRYAKDVWAG	+++ (10.01-15.00)	‡‡‡ (5001-10000)	+ (0-5.00)	‡‡ (1001-5000)	+ (0-5.00)	‡‡ (1001-5000)	++++ (15.01-20.00)	‡‡‡‡ (10000-50000)	–	–	–	–
